Data taken from publication PMC11931667, “A new view of missense mutations in α‐mannosidosis using molecular dynamics conformational ensembles” (Protein Science : A Publication of the Protein Society, 2025).

Target: the molecule itself
Assay: native gel or EMSA; PAGE run under native conditions and Western blot with anti-His IgG of hLAMAN expressed in K. phaffii for the indicated time periods; single band at approx. 230 kDa

B1: Human lysosomal α‐mannosidase (enzyme, UniProt O00754 50-1011, looked up)
chain: GGYETCPTVQPNMLNVHLLPHTHDDVGWLKTVDQYFYGIKNDIQHAGVQYILDSVISALLADPTRRFIYVEIAFFSRWWHQQTNATQEVVRDLVRQGRLEFANGGWVMNDEAATHYGAIVDQMTLGLRFLEDTFGNDGRPRVAWHIDPFGHSREQASLFAQMGFDGFFFGRLDYQDKWVRMQKLEMEQVWRASTSLKPPTADLFTGVLPNGYNPPRNLCWDVLCVDQPLVEDPRSPEYNAKELVDYFLNVATAQGRYYRTNHTVMTMGSDFQYENANMWFKNLDKLIRLVNAQQAKGSSVHVLYSTPACYLWELNKANLTWSVKHDDFFPYADGPHQFWTGYFSSRPALKRYERLSYNFLQVCNQLEALVGLAANVGPYGSGDSAPLNEAMAVLQHHDAVSGTSRQHVANDYARQLAAGWGPCEVLLSNALARLRGFKDHFTFCQQLNISICPLSQTAARFQVIVYNPLGRKVNWMVRLPVSEGVFVVKDPNGRTVPSDVVIFPSSDSQAHPPELLFSASLPALGFSTYSVAQVPRWKPQARAPQPIPRRSWSPALTIENEHIRATFDPDTGLLMEIMNMNQQLLLPVRQTFFWYNASIGDNESDQASGAYIFRPNQQKPLPVSRWAQIHLVKTPLVQEVHQNFSAWCSQVVRLYPGQRHLELEWSVGPIPVGDTWGKEVISRFDTPLETKGRFYTDSNGREILERRRDYRPTWKLNQTEPVAGNYYPVNTRIYITDGNMQLTVLTDRSQGGSSLRDGSLELMVHRRLLKDDGRGVSEPLMENGSGAWVRGRHLVLLDTAQAAAAGHRLLAEQEVLAPQVVLAPGGGAAYNLGAPPRTQFSGLRRDLPPSVHLLTLASWGPEMVLLRLEHQFAVGEDSGRNLSAPVTLNLRDLFSTFTITRLQETTLVANQLREAASRLKWTTNTGPTPHQTPYQLDPANITLEPMEIRTFLASVQWKEVDG
notes: human lysosomal alpha-mannosidase (hLAMAN, EC 3.2.1.24), gene MAN2B1; That vector probably adds the alpha-factor secretion signal; it speaks of a homodimer of the polypeptides A-E, (A-E)2; also called hLAMAN; MAN2B1; source: K. phaffii X33 (pPICZalpha), methanol-induced; aliquots of pellet and supernatant analysed, not purified
stoichiometry N: 2
